Laboratory results: patent US20250282870A1 (BIOENTRE, published 2025)

T1: human CTLA4 expressed on Jurkat T cells (CTLA4 effector cells) (human, UniProt P16410 36-223)
T1 sequence (looked up): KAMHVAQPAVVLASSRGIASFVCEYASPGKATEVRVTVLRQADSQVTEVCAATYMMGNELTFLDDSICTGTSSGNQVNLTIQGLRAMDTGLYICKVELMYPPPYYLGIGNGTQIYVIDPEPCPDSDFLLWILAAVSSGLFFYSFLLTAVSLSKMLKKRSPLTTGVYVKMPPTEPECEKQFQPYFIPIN


Columns and labels:
[1] = target: T1, human CTLA4 expressed on Jurkat T cells …; experiment: cell-based or functional assay
[2] = target: FcγRII (CD32) expressed on Raji cells; experiment: cell-based or functional assay

| Binder | activity titration curve, CTLA4 blockade assay, against 26 HuIgG1 [1] | RLU ratio of the CTLA4 blockade assay with anti-CD32 antibody at 10 µg per ml [2] |
| --- | --- | --- |
| 26 F(ab')2 (synthetic) (other) VH: QVQLKESGPGLVAPSQSLSITCTVSGFSLTSYGVYWVRQPPGKGLEWLGVIWAGGTTNYNSALMSRLSISKDNSKSQVFLKMSSLQTDDTAMYYCARGPPHAMMKRGYAMDYWGQGTSVIVSS VL: QNVLTQSPAIMPASPGEKVTMTCSATSSITYMSWYQQKSGSSPRLLIYDTSNLASGVPVRFSGSGSGTSYSLTISRMEAEDAATYYCQQWSSYPLTFGAGTKLELK | > 2 fold of 26 HuIgG1 |  |
| 26 HuIgG1 (chimeric antibody: VH and VL of mouse antibody 26 on a human IgG1 scaffold) (antibody, V domains shown) VH: QVQLKESGPGLVAPSQSLSITCTVSGFSLTSYGVYWVRQPPGKGLEWLGVIWAGGTTNYNSALMSRLSISKDNSKSQVFLKMSSLQTDDTAMYYCARGPPHAMMKRGYAMDYWGQGTSVIVSS VL: QNVLTQSPAIMPASPGEKVTMTCSATSSITYMSWYQQKSGSSPRLLIYDTSNLASGVPVRFSGSGSGTSYSLTISRMEAEDAATYYCQQWSSYPLTFGAGTKLELK |  | ~50% |
